Experimental data from the supplement of paper PMC9112550, “Optimization of the antimicrobial peptide Bac7 by deep mutational scanning” (BMC Biology, 2022).

test system: Escherichia coli TOP10; test: shrunken log2 fold change of peptide-encoding DNA abundance (4.5 h post-induction vs induction); higher = less antimicrobial activity (less host growth inhibition); details: time post-induction: 4.5 h; library: site-saturation at positions 5, 18, 19, 20
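Also: peptides expressed intracellularly from a pBAD plasmid library in pooled LB shake-flask culture, induced with 0.3% L-arabinose, DNA abundance read by NGS, three biological replicates, DESeq2 with apeglm shrinkage.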

Sequence	shrunken log2 fold change
RRIRSRPPRLPRPRPRPNWMPRP	-0.0249
RRIRMRPPRLPRPRPRPFWHPRP	-0.00226
RRIRSRPPRLPRPRPRPNTMPRP	-0.154
RRIRCRPPRLPRPRPRPVVYPRP	-0.0321
RRIRGRPPRLPRPRPRPGFYPRP	0.512
RRIRSRPPRLPRPRPRPDIDPRP	-0.15
RRIRGRPPRLPRPRPRPGNTPRP	0.171
RRIRHRPPRLPRPRPRPQHLPRP	-0.358
RRIRWRPPRLPRPRPRPAMPPRP	0.446
RRIRERPPRLPRPRPRPGKKPRP	-0.0022
RRIRGRPPRLPRPRPRPQGRPRP	0.553
RRIRRRPPRLPRPRPRPFDPPRP	0.504
RRIRQRPPRLPRPRPRPAWCPRP	0.0518
RRIRDRPPRLPRPRPRPEFHPRP	0.858
RRIRFRPPRLPRPRPRPSAEPRP	0.0747
RRIRPRPPRLPRPRPRPVQLPRP	-0.135
RRIRWRPPRLPRPRPRPKAFPRP	-0.0585
RRIRIRPPRLPRPRPRPGTFPRP	-0.0863
RRIRARPPRLPRPRPRPACYPRP	0.489
RRIRCRPPRLPRPRPRPEIDPRP	0.138
RRIRGRPPRLPRPRPRPPPFPRP	0.887
RRIRARPPRLPRPRPRPQPIPRP	0.16
RRIRHRPPRLPRPRPRPFHAPRP	-0.0061
RRIRRRPPRLPRPRPRPCRVPRP	0.0136
RRIRYRPPRLPRPRPRPKRVPRP	0.0354

Sequence	shrunken log2 fold change
RRIRKRPPRLPRPRPRPGMAPRP	0.315
RRIRDRPPRLPRPRPRPLNYPRP	-0.372
RRIRFRPPRLPRPRPRPKIYPRP	-0.328
RRIRPRPPRLPRPRPRPTFLPRP	-0.0646
RRIRARPPRLPRPRPRPHVDPRP	0.142
RRIRSRPPRLPRPRPRPHLYPRP	-0.02
RRIRGRPPRLPRPRPRPRDQPRP	1.26
RRIRCRPPRLPRPRPRPHRHPRP	-0.275
RRIRHRPPRLPRPRPRPRWVPRP	0.31
RRIRYRPPRLPRPRPRPAFFPRP	-0.405
RRIRERPPRLPRPRPRPWRAPRP	0.0397
RRIRHRPPRLPRPRPRPYELPRP	-0.116
RRIRPRPPRLPRPRPRPNFIPRP	-0.215
RRIRNRPPRLPRPRPRPNDKPRP	-0.549
RRIRCRPPRLPRPRPRPATAPRP	0.41
RRIRHRPPRLPRPRPRPIHLPRP	-0.541
RRIRTRPPRLPRPRPRPPADPRP	0.217
RRIRSRPPRLPRPRPRPVPDPRP	-0.0298
RRIRTRPPRLPRPRPRPICTPRP	0.409
RRIRYRPPRLPRPRPRPCKAPRP	-0.073
RRIRIRPPRLPRPRPRPRQVPRP	0.0368
RRIRKRPPRLPRPRPRPSGWPRP	-0.146
RRIRERPPRLPRPRPRPVWEPRP	0.239
RRIRARPPRLPRPRPRPNPIPRP	-0.19
RRIRRRPPRLPRPRPRPKGDPRP	0.3

Sequence	shrunken log2 fold change
RRIRPRPPRLPRPRPRPPMLPRP	0.18
RRIRNRPPRLPRPRPRPYWYPRP	-0.177
RRIRGRPPRLPRPRPRPSCGPRP	0.451
RRIRLRPPRLPRPRPRPNENPRP	-0.189
RRIRDRPPRLPRPRPRPSHTPRP	-0.436
RRIRPRPPRLPRPRPRPQPVPRP	0.212
RRIRPRPPRLPRPRPRPTMAPRP	0.502
RRIRKRPPRLPRPRPRPWQPPRP	0.0588
RRIRHRPPRLPRPRPRPSPYPRP	-0.703
RRIRNRPPRLPRPRPRPTMLPRP	-0.241
RRIRLRPPRLPRPRPRPCCLPRP	-0.293
RRIRMRPPRLPRPRPRPNGIPRP	0.0753
RRIRTRPPRLPRPRPRPMFTPRP	-0.253
RRIRWRPPRLPRPRPRPTECPRP	0.0746
RRIRLRPPRLPRPRPRPIMTPRP	-0.397
RRIRLRPPRLPRPRPRPACIPRP	-0.0506
RRIRIRPPRLPRPRPRPDVMPRP	-0.17
RRIRARPPRLPRPRPRPMHVPRP	-0.0248
RRIRSRPPRLPRPRPRPAGGPRP	0.529
RRIRRRPPRLPRPRPRPNFSPRP	0.211
RRIRDRPPRLPRPRPRPSMHPRP	-0.176
RRIRGRPPRLPRPRPRPVNQPRP	0.35
RRIRHRPPRLPRPRPRPSMWPRP	-0.095
RRIRKRPPRLPRPRPRPQMQPRP	0.134
RRIRTRPPRLPRPRPRPRCYPRP	-0.429

Sequence	shrunken log2 fold change
RRIRLRPPRLPRPRPRPFAGPRP	0.024
RRIRARPPRLPRPRPRPHNGPRP	0.0647
RRIRDRPPRLPRPRPRPCIDPRP	0.0188
RRIRSRPPRLPRPRPRPDEWPRP	-0.00195
RRIRWRPPRLPRPRPRPWQTPRP	-0.0178
RRIRSRPPRLPRPRPRPNHAPRP	-0.278
RRIRKRPPRLPRPRPRPAFRPRP	0.576
RRIRIRPPRLPRPRPRPEGHPRP	-0.00139
RRIRKRPPRLPRPRPRPHMQPRP	-0.0772
RRIRQRPPRLPRPRPRPTSGPRP	-0.0104
RRIRSRPPRLPRPRPRPIVDPRP	0.115
RRIRYRPPRLPRPRPRPTETPRP	-0.00564
RRIRTRPPRLPRPRPRPMKTPRP	0.0208
RRIRARPPRLPRPRPRPVALPRP	0.411
RRIRNRPPRLPRPRPRPFPQPRP	-0.186
RRIRHRPPRLPRPRPRPDFEPRP	0.18
RRIRQRPPRLPRPRPRPFFHPRP	-0.532
RRIRCRPPRLPRPRPRPMHMPRP	-0.14
RRIRCRPPRLPRPRPRPSIGPRP	-0.098
RRIRIRPPRLPRPRPRPFTGPRP	-1.27
RRIRFRPPRLPRPRPRPHDCPRP	-0.0297
RRIRVRPPRLPRPRPRPWGRPRP	0.0354
RRIRIRPPRLPRPRPRPCHGPRP	-0.545
RRIRYRPPRLPRPRPRPDKVPRP	-0.102
RRIRIRPPRLPRPRPRPWATPRP	0.16

Sequence	shrunken log2 fold change
RRIRPRPPRLPRPRPRPYTNPRP	-0.709
RRIRGRPPRLPRPRPRPHVKPRP	-0.0605
RRIRTRPPRLPRPRPRPSRDPRP	-0.139
RRIRHRPPRLPRPRPRPRRDPRP	-0.02
RRIRDRPPRLPRPRPRPQVCPRP	0.19
RRIRERPPRLPRPRPRPDAMPRP	-0.0916
RRIRSRPPRLPRPRPRPPSIPRP	0.2
RRIRVRPPRLPRPRPRPNKLPRP	-0.325
RRIRMRPPRLPRPRPRPLQCPRP	-0.0663
RRIRQRPPRLPRPRPRPPGFPRP	0.0259
RRIRMRPPRLPRPRPRPNAHPRP	8.74e-05
RRIRRRPPRLPRPRPRPLDDPRP	0.0512
RRIRYRPPRLPRPRPRPSVIPRP	-0.616
RRIRCRPPRLPRPRPRPKGSPRP	0.189
RRIRDRPPRLPRPRPRPDGQPRP	0.705
RRIRCRPPRLPRPRPRPRRWPRP	0.646
RRIRLRPPRLPRPRPRPTMIPRP	-0.164
RRIRLRPPRLPRPRPRPMWPPRP	-0.0364
RRIRLRPPRLPRPRPRPYGNPRP	0.0303
RRIRDRPPRLPRPRPRPQVSPRP	0.0416
RRIRSRPPRLPRPRPRPLVGPRP	0.0355
RRIRERPPRLPRPRPRPYTHPRP	-0.623
RRIRIRPPRLPRPRPRPIGDPRP	-0.0264
RRIRERPPRLPRPRPRPYFLPRP	-0.437
RRIRFRPPRLPRPRPRPIFHPRP	-0.295

Sequence	shrunken log2 fold change
RRIRYRPPRLPRPRPRPDTDPRP	-0.02
RRIRFRPPRLPRPRPRPHWRPRP	0.121
RRIRYRPPRLPRPRPRPHKNPRP	-1.06
RRIRSRPPRLPRPRPRPSRVPRP	0.107
RRIRLRPPRLPRPRPRPLGQPRP	0.0405
RRIRKRPPRLPRPRPRPQLCPRP	0.129
RRIRRRPPRLPRPRPRPEMEPRP	0.0355
RRIRLRPPRLPRPRPRPFDNPRP	-0.0289
RRIRHRPPRLPRPRPRPCGVPRP	-0.00991
RRIRARPPRLPRPRPRPMAMPRP	0.282
RRIRWRPPRLPRPRPRPQIHPRP	-0.681
RRIRTRPPRLPRPRPRPEIWPRP	0.264
RRIRERPPRLPRPRPRPKVTPRP	-0.114
RRIRDRPPRLPRPRPRPVWHPRP	0.0277
RRIRKRPPRLPRPRPRPCGHPRP	0.0693
RRIRSRPPRLPRPRPRPPMDPRP	-0.0324
RRIRERPPRLPRPRPRPNTTPRP	0.123
RRIRSRPPRLPRPRPRPCGKPRP	0.027
RRIRNRPPRLPRPRPRPDCAPRP	0.315
RRIRQRPPRLPRPRPRPWRAPRP	0.0749
RRIRPRPPRLPRPRPRPMDLPRP	-0.00399
RRIRSRPPRLPRPRPRPPDAPRP	0.415
RRIRLRPPRLPRPRPRPGMTPRP	0.00528
RRIRMRPPRLPRPRPRPVSTPRP	1.96
RRIRCRPPRLPRPRPRPVGAPRP	0.622
